# From publication PMC5636811, “High-fidelity DNA replication in Mycobacterium tuberculosis relies on a trinuclear zinc center”
# B1: mismatched primer-template cryo-EM substrate (dsDNA)
# DNA 1: CCCCTCAGGAGTCCTTCGTCCTAGTACTACTCC
# DNA 2: GGAGTAGTACTAGGACGAAGGACGT
# modifications: phosphorothioate between last two nt of primer (GsT)
# Biological target: DnaE1 (replicative DNA polymerase);β-clamp (Mycobacterium …, UniProt P9WNT7;P9WNU1 1-1184;1-402, |)
# Test: cryo-EM 2D class average
# Conditions: protein: recombinant;recombinant; tags: His tag cleaved with HRV 3C protease;; copies: 1;2
# DnaE1 (replicative DNA polymerase);β-clamp, sequence (P9WNT7 whole entry, chain 1 of 2): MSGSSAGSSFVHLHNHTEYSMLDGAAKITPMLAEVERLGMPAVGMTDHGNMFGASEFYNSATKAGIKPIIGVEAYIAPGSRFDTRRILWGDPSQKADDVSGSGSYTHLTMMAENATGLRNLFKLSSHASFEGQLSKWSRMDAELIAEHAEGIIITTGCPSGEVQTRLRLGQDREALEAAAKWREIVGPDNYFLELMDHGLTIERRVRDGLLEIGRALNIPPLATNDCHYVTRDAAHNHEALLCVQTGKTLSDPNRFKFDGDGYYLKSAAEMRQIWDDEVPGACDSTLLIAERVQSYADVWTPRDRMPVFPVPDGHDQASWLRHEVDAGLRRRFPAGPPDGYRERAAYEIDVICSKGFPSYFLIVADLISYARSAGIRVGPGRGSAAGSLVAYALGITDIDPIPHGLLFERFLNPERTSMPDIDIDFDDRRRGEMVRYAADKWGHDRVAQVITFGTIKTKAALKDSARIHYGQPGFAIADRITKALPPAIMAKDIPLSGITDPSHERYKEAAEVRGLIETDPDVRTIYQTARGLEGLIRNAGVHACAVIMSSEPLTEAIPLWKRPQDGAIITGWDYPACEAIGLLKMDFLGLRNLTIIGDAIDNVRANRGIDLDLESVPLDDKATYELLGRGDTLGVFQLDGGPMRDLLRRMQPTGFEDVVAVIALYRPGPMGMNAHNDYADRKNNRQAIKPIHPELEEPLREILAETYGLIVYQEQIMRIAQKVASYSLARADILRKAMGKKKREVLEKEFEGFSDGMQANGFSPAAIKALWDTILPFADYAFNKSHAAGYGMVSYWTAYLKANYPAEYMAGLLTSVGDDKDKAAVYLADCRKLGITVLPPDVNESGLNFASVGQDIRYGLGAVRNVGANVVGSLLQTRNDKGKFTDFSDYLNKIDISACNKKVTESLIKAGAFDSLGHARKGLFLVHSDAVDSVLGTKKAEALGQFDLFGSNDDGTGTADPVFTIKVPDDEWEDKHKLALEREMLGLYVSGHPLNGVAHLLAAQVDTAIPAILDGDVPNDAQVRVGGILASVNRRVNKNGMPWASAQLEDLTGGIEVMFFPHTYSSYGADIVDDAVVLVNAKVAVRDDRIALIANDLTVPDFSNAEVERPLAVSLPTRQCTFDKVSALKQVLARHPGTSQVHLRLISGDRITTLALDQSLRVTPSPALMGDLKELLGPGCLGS
# DnaE1 (replicative DNA polymerase);β-clamp, sequence (P9WNU1 whole entry, chain 2 of 2): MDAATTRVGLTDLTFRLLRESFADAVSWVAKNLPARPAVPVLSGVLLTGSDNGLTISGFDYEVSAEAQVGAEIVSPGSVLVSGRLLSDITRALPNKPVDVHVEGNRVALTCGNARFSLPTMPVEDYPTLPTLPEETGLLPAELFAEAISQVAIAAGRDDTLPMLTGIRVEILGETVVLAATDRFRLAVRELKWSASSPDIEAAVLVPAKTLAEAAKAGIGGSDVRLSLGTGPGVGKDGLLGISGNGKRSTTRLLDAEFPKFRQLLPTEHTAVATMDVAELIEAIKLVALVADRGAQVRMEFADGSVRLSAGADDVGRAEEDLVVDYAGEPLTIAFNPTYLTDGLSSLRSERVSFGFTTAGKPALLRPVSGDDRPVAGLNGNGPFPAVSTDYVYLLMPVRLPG
binder,measurement,value
B1,binding result,binds
